# Target: anthrax lethal factor (LF) protease (UniProt P15917 34-809)
# Assay: enzyme inhibition assay
# Chain of anthrax lethal factor (LF) protease (P15917 34-809): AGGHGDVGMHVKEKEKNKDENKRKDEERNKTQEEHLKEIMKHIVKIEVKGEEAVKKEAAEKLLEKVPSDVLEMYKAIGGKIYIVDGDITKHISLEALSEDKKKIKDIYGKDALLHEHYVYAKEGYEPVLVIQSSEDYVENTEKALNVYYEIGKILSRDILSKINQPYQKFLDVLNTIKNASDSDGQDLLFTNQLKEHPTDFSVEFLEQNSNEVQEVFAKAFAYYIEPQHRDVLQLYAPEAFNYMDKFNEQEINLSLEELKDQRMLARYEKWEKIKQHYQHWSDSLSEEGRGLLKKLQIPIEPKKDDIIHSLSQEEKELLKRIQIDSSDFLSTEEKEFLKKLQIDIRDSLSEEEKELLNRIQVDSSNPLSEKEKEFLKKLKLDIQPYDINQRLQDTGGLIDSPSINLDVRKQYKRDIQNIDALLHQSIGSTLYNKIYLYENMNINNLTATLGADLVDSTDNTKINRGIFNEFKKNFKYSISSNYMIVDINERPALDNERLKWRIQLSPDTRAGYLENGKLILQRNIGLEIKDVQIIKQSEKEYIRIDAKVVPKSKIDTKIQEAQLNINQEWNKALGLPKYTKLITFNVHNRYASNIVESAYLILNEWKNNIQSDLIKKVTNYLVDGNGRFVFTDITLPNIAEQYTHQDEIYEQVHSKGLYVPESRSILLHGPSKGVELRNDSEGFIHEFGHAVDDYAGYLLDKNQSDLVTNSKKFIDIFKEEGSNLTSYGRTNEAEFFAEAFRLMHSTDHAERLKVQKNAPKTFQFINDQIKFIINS
binder,measurement,value
GFCRCACLHGVCRCICTR (not fully specified; backbone-cyclized; three disulfide bonds) [RTD-1 analog clone #14],Ki,946 ± 47 nM
GFCRCPCSRYGCWCICTR (not fully specified; backbone-cyclized; three disulfide bonds) [RTD-1 analog clone #52],Ki,946 ± 58 nM

# From PMC5840032 (Bioorganic & medicinal chemistry, 2017)
